Measured values reported in patent US20210070829A1 (ZHEJIANG DOER BIOLOGICS, published 2021).
One block for each binder: values may come before it.

Experiments:
human GLP-1 receptor = human GLP-1 receptor (human, UniProt P43220 24-463); assay: cell-based or functional assay
Glucagon receptor = assay: cell-based or functional assay

GLP-1R agonist activity EC50 (luciferase reporter) (human GLP-1 receptor): 18.5 nM | GCGR agonist activity EC50 (luciferase reporter) (Glucagon receptor): 26.7 nM
B1: C788L1F5 (Fc fusion)
chain: HSQGTFTSDYSKQMDSQRAQDFVQWLMNTKRNRNNIAGGGGSERKCCVECPPCPAPPVAGPSVFLFPPKPKDTLMISRTPEVTCVVVDVSHEDPEVQFNWYVDGVEVHNAKTKPREEQFNSTFRVVSVLTVVHQDWLNGKEYKCKVSNKGLPSSIEKTISKTKGQPREPQVYTLPPSREEMTKNQVSLTCLVKGFYPSDIAVEWESNGQPENNYKTTPPMLDSDGSFFLYSKLTVDKSRWQQGNVFSCSVMHEALHNHYTQKSLSLSPG

GLP-1R agonist activity EC50 (luciferase reporter) (human GLP-1 receptor): 1.41 nM | GCGR agonist activity EC50 (luciferase reporter) (Glucagon receptor): 1.27 nM
B2: C627L13F10 (Fc fusion)
chain: HSQGTFTSDYSKQMDSQRAQDFVQWLMNGGPSSGAPPPSGGGGAGGGGAGGGGAAESKYGPPCPPCPAPEAAGGPSVFLFPPKPKDTLMISRTPEVTCVVVDVSQEDPEVQFNWYVDGVEVHNAKTKPREEQFASTYRVVSVLTVLHQDWLNGKEYKCKVSNKGLPSSIEKTISKAKGQPREPQVYTLPPSQEEMTKNQVSLTCLVKGFYPSDIAVEWESNGQPENNYKTTPPVLDSDGSFFLYSRLTVDKSRWQEGNVFSCSVMHEALHNHYTQKSLSLSLG
